Results taken from paper PMC12097012, “Direct Quantification of Protein–Protein Interactions in Living Bacterial Cells” (Advanced Science, 2025).
Ends that are not written are not given here.

Assays:
[1] = target: T1, ^CDD_(ElaJ); assay: FRET or BRET; KD-FRET: sensitized-emission (three-channel) FRET microscopy of single living E. coli BW25993 cells (UvrA/UvrB: uvrA uvrB double deletion strain), donor eGFPd fusion from pFF838, acceptor mRFP fusion from pBBR6k, M9 medium, 37 °C; corrections to step 6; FRET efficiency against binned acceptor concentration fitted to a quadratic binding equation; conditions: partners not purified
T1 chain: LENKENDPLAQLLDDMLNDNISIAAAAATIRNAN

[2] = target: T2, ^CDD_(MlnD) labeled with eGFPd; assay: FRET or BRET; in vitro FRET with purified fusion proteins in PBS, plate reader, 37 °C; donor protein fixed at 1 × 10^-6 M, acceptor protein 0 to 20 × 10^-6 M; conditions: both partners purified
T2 chain: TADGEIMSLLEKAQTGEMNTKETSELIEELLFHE

[3] = target: T2, ^CDD_(MlnD) labeled with eGFPd; assay: FRET or BRET; KD-FRET: sensitized-emission (three-channel) FRET microscopy of single living E. coli BW25993 cells (UvrA/UvrB: uvrA uvrB double deletion strain), donor eGFPd fusion from pFF838, acceptor mRFP fusion from pBBR6k, M9 medium, 37 °C; corrections to step 6; FRET efficiency against binned acceptor concentration fitted to a quadratic binding equation; conditions: partners not purified
[4] = target: T3, UvrA-eGFPd (E. coli, UniProt P0A698 1-940); assay: as above; conditions: partners not purified
T3 construct: UvrA, nucleotide excision repair protein of E. coli; source: E. coli BW25993 with double deletion of uvrA and uvrB (SY006), expressed from the donor vector, in living cells; not shown: eGFPd, C-terminal, kept
T3 sequence (looked up): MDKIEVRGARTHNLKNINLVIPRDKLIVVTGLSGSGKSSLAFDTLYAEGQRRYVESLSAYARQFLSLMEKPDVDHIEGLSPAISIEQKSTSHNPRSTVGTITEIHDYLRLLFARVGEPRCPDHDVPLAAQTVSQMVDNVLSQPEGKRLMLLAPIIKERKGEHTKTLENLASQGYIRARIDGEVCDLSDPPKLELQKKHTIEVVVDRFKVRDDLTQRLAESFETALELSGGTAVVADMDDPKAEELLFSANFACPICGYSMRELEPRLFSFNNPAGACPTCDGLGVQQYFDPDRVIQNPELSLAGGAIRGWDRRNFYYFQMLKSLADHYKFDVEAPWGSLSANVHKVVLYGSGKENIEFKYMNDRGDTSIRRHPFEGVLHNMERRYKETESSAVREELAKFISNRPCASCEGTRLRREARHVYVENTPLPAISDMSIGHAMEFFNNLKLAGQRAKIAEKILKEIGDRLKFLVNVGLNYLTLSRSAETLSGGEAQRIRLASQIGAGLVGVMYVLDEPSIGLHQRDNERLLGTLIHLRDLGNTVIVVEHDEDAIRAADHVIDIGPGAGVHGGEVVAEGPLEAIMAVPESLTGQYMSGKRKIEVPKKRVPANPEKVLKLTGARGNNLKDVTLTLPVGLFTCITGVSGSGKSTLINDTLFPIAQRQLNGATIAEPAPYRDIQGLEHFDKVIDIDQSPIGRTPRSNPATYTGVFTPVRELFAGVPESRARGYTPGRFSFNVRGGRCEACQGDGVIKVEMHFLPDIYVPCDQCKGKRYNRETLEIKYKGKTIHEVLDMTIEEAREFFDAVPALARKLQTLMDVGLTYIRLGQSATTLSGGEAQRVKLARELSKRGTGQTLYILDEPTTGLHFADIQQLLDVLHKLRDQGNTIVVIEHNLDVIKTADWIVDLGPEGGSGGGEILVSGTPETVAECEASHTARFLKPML

[5] = target: T4, eGFPd-^CDD_(MlnB); assay: FRET or BRET; in vitro FRET with purified fusion proteins in PBS, plate reader, 37 °C; donor protein fixed at 1 × 10^-6 M, acceptor protein 0 to 20 × 10^-6 M; conditions: both partners purified
T4 chain: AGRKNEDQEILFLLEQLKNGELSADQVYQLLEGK

[6] = target: T4, eGFPd-^CDD_(MlnB); assay: ITC; cell: 80 × 10^-6 M eGFPd-CDD_MlnB; syringe: 1.6 × 10^-3 M NDD_MlnC-mRFP, 20 injections of 2 µL; 20 mM Tris-HCl pH 7.9, 250 mM NaCl, 1 mM EDTA, 10% glycerol, 1 mM TCEP; 37 °C; single binding site model; conditions: both partners purified
[7] = target: T4, eGFPd-^CDD_(MlnB); assay: FRET or BRET; KD-FRET: sensitized-emission (three-channel) FRET microscopy of single living E. coli BW25993 cells (UvrA/UvrB: uvrA uvrB double deletion strain), donor eGFPd fusion from pFF838, acceptor mRFP fusion from pBBR6k, M9 medium, 37 °C; corrections to step 6; FRET efficiency against binned acceptor concentration fitted to a quadratic binding equation; conditions: partners not purified

MKDYIEHILEEIKHNRLSKQEGLEQIRQFRSKGNV (domain or fragment, not fully specified) [^NDD_(ElaK)]
Kd [1]: 1180 nM

MNEKTMQIEQIVKKVKECSLTPEEGLELIKSLGKT (domain or fragment, also: labeled with mRFP) [^NDD_(MlnE) labeled with mRFP]
Kd [2]: 1500 nM
Kd [3]: 250 nM

B1: UvrB-mRFP (natural protein, E. coli, UniProt P0A8F8 1-673, looked up)
chain: MSKPFKLNSAFKPSGDQPEAIRRLEEGLEDGLAHQTLLGVTGSGKTFTIANVIADLQRPTMVLAPNKTLAAQLYGEMKEFFPENAVEYFVSYYDYYQPEAYVPSSDTFIEKDASVNEHIEQMRLSATKAMLERRDVVVVASVSAIYGLGDPDLYLKMMLHLTVGMIIDQRAILRRLAELQYARNDQAFQRGTFRVRGEVIDIFPAESDDIALRVELFDEEVERLSLFDPLTGQIVSTIPRFTIYPKTHYVTPRERIVQAMEEIKEELAARRKVLLENNKLLEEQRLTQRTQFDLEMMNELGYCSGIENYSRFLSGRGPGEPPPTLFDYLPADGLLVVDESHVTIPQIGGMYRGDRARKETLVEYGFRLPSALDNRPLKFEEFEALAPQTIYVSATPGNYELEKSGGDVVDQVVRPTGLLDPIIEVRPVATQVDDLLSEIRQRAAINERVLVTTLTKRMAEDLTEYLEEHGERVRYLHSDIDTVERMEIIRDLRLGEFDVLVGINLLREGLDMPEVSLVAILDADKEGFLRSERSLIQTIGRAARNVNGKAILYGDKITPSMAKAIGETERRREKQQKYNEEHGITPQGLNKKVVDILALGQNIAKTKAKGRGKSRPIVEPDNVPMDMSPKALQQKIHELEGLMMQHAQNLEFEEAAQIRDQLHQLRELFIAAS
notes: UvrB, nucleotide excision repair protein of E. coli; source: E. coli BW25993 with double deletion of uvrA and uvrB (SY006), expressed from the acceptor vector, in living cells; not shown: mRFP, C-terminal, kept
Kd [4]: 170 nM

MQIKQILSLIEEQQMSPDAGLELIRTYRKEQMEKK (domain or fragment, also: fused to mRFP) [^NDD_(MlnC)-mRFP]
Kd [5]: 5660 nM
Kd [6]: 6850 nM
Kd [7]: 2290 nM
